Measurements from the supplement of paper PMC12042874.
± gives the uncertainty stated by the source.

Assay: amyloid nucleation score (Sup35N fusion, yeast selection) (log enrichment); library NNK1; higher = more nucleation; inactive = no reads after selection
Summary of the method: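 Plasmid inserts were Illumina-sequenced at input and output from psi-negative yeast expressing Sup35N fused to peptides of 20 random codons. The yeast were induced with 100 μM copper sulfate for 24 hours and grown 7 days at 30°C on medium lacking adenine and uracil, and sequences with under 100 input reads were excluded. Nucleation score is the DiMSum log enrichment of output over input reads, centred on the mode score of non-aggregating sequences.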

Substance | amyloid nucleation score
VRVWTYLAWVQYLPYQMGLF | inactive
VRWCYILQQ | inactive
VRWDPVRRIWFALR | inactive
VRYSGNMLSSTSVNGIFGHE | 0.067 ± 0.28
VSCANMNIDELTWHVDWWCL | 7.597 ± 0.047
VSCMRDIIRLCYQQTPICKF | -0.272 ± 0.84
VSCWLQISDLRAVAWPLRSF | 0.588 ± 0.21
VSDRRTGVLRIHCNFKVGLS | 1.89 ± 0.16
VSEDVFLWVKLSLTAGSEGR | -0.973 ± 0.4
VSFGIFMNESYV | 1.52 ± 0.098
VSFNGFLHLFWVFILLNSPW | 6.98 ± 0.085
VSGIVPDDLSVFDVHSKYV | 0.455 ± 0.33
VSGSVFTNMIANILSTSRYV | -0.179 ± 1.6
VSHYGCFQTVCDLRVGGPPE | -1.4 ± 2.4
VSKTTRSCCWELFEA | -0.052 ± 0.42
VSLCAQRYVIMMSIVRTKSL | 0.105 ± 0.22
VSLCEMNRSFCWDAGASGRV | 0.621 ± 1
VSNTSLYPDKESMLRGTEWE | 0.674 ± 0.77
VSPIMFAYSMSCMSFYGEHG | 5.04 ± 0.1
VSRWYVILNML | 4.03 ± 0.11
VSTSHCTSFVFNIYCKYDSR | 8.542 ± 0.052
VSTSNSYDSSQHDLDFRQSG | -0.162 ± 0.63
VSTVLARSVWLWDTPFLRSE | -0.079 ± 0.34
VSYNVRIGWAVYN | 0.89 ± 0.27
VTARTRSDS | 0.55 ± 0.55

Substance | amyloid nucleation score
VTDEFCPVLSGG | 0.317 ± 0.52
VTFRIVRVLPMEPVRTRAGD | -0.972 ± 0.54
VTIHETCRVWRFVRTDRRWG | 0.553 ± 0.46
VTKLNMILMVGTVYGSNIGV | 6.782 ± 0.05
VTNYGYDLFVLILDGAMNLS | 0.407 ± 0.51
VTRYRTLTRHWWS | 0.277 ± 0.39
VTSYFKIRLCFPRGMASCTR | 3.37 ± 0.19
VTYSYASGDGPDSLWCT | -0.026 ± 0.84
VTYVMCFAMEMMVGRCRWGG | -0.029 ± 1.4
VVESTGFIWAGEWVLWIEFS | -0.356 ± 0.82
VVIVGAGIPWILGESAVFRC | 0.218 ± 0.36
VVKSSTPSSDPTTASRIWLL | -0.26 ± 0.43
VVLTYSWGAYRY | 1.26 ± 0.23
VVMLSVSPLTIHRGSFRDCS | 2.97 ± 0.1
VVNLWTQADIMRSSCRLKHV | 0.074 ± 0.19
VVQFKMWACQTFFMDLRNTM | 1.56 ± 0.11
VVRLG | 0.124 ± 1
VVVCAVHDDYSINRAIEDER | -0.183 ± 0.4
VVVVDDHDDVALSFIHTMSR | 0.164 ± 0.43
VVVVIFDFRCNKLQ | 2.28 ± 0.2
VVVYGCLYILVARRYDTIAW | 0.493 ± 0.84
VVYHAFDALLNLCRSSYRGH | -0.811 ± 0.52
VWCVVVCMSRQGKYTLCRWR | 0.444 ± 0.97
VWDRWDSGHVCYSNMAVWNV | 0.536 ± 0.36
VWELGPFCDLEVRYV | 0.531 ± 0.52

Substance | amyloid nucleation score
VWFIVLSRGQFHICFYGQG | -1.32 ± 2.7
VWFNPYLNDRSREGGRVVWM | 0.099 ± 0.27
VWGQRGSGSNSCLEW | 0.15 ± 0.68
VWKDRPEMYSCGHCIEMRAE | 0.039 ± 0.37
VWLRNTKEMCFV | 1.64 ± 0.11
VWMLTMSAFKVYWLNFINYA | -0.037 ± 0.22
VWNYVYGMMWCM | 5.54 ± 0.09
VYASGWAQISVTGGTWLRGD | 0.131 ± 0.42
VYDLS | -0.006 ± 0.72
VYFSSLVIFWYLFLYSFEYL | 0.689 ± 0.48
VYGMITIDNRQVRVVLGFRS | -0.549 ± 0.71
VYGSIKSVEANTVWML | 3.32 ± 0.16
VYGSPPNMWNVV | 0.066 ± 0.79
VYHSCSDMCFKAFQVNTYQC | 1.16 ± 0.66
VYLKEEHGKFAGGPSPRCKP | 0.274 ± 0.46
VYPCACVFYSLGVGLQNEET | 6.27 ± 0.089
VYQVNVGCWSCGCRTVICNR | 7.932 ± 0.045
VYTDLKGENAGGIIYCGIGS | 0.445 ± 0.26
VYTKYICWGCVNAQRFDHGT | 8.269 ± 0.049
VYVDVSFPPPVFEWCGPQIT | 0.392 ± 0.69
VYVFLADNGSDELLMLVLTG | 0.12 ± 0.28
VYVSFTRNCVGCIGLD | 4.62 ± 0.061
WALISYGVWGTRTADLCRCH | 0.907 ± 0.65
WARCTGIMFGS | 0.027 ± 0.97
WCCHAGAMFAMAKSL | 0.468 ± 0.62

Substance | amyloid nucleation score
WCDGYVMFLDTNCIRINHIL | -0.162 ± 0.24
WCSKYCMMPSFPTMSRPVPL | -0.426 ± 0.44
WDEFGVDEWSYWLLLWYVAR | 0.799 ± 0.97
WDLCISINYSVFLNLACSV | 3.25 ± 0.098
WENTSRKYVAANDCARMRLG | -0.281 ± 0.41
WEPTR | 0.174 ± 0.59
WEVVMWRYCAPRTGVLPQKP | -0.535 ± 1.2
WFCVHKTVSLDMASVDRKGQ | 4.8 ± 0.088
WFGDGSCKRWLWGMKVTPED | -0.518 ± 0.69
WFGTHCVLSYVSTFWSLQSV | -0.275 ± 0.24
WFICKYNQFDHDVLFSVSTA | 1.92 ± 0.68
WFIRARFTLGKRNELREVI | 0.647 ± 0.64
WFLCSSRFISLLQ | -1.49 ± 0.47
WFSDMTAFLC | inactive
WFWELGN | 0.201 ± 0.28
WFWMYGKGKESQSVVNGGGT | 0.861 ± 0.53
WGAHCGWQF | -0.749 ± 1.3
WGEFYVNSSNFVNMQSVWQQ | -0.257 ± 1.7
WGNLASRLQALDQVRRSGSM | -0.56 ± 0.57
WGQLIRGRNRSSQGEEMRYL | -0.148 ± 0.26
WGSCISFRNRGMCLILDSVC | 0.037 ± 0.37
WGTVYVPV | 1.72 ± 0.49
WGVALRDAATAVDVGLVVRF | 0.37 ± 0.62
WGYNRLNDDELLIMSKFLRQ | 1 ± 0.48
WHASNFLTSSSHKMSSNWTS | 0.67 ± 0.48

Substance | amyloid nucleation score
WHPRSLVPPTRL | 0.758 ± 0.56
WHRGYGMLTRLRWRPDTVLF | -0.052 ± 1.2
WICQTGRFNELTHRCCVWFF | 0.762 ± 0.47
WIMVFWEFVNLTCNNRILDN | -0.588 ± 0.72
WIPGRLLSAVKVGSNSLVF | -0.637 ± 0.62
WISEYGWFRIKFAWAAYGYR | -0.023 ± 0.72
WIYRFPHKMHVIEDVRSVN | 0.894 ± 0.58
WKFLFVVFIYSNYVVGLLDN | -0.915 ± 0.67
WKGMMQFDMSHSCVYWWKCA | 0.71 ± 1.1
WKKPIQGSVW | 0.295 ± 0.49
WKQLTCWSEILDTIDSL | 0.901 ± 0.79
WLGLGVRALRSENVCCRAFH | 1.1 ± 0.49
WLGSYIVFLIRMETYDWWIV | -0.114 ± 0.38
WLHNIQRYTFFSKLRNQRRR | -0.442 ± 0.76
WLLIRKGGVRFKIQYRHQHS | 1.73 ± 0.37
WLLISSALIIYVRHGLIRSM | -0.455 ± 0.81
WLLMSCTHCSCLKMRIHWKG | -1.1 ± 2.4
WLLWLTSSYKHQWMT | -1.7 ± 1.4
WLPFLVFCRGESYYRLDRSS | 2.42 ± 0.091
WLSSKGRQSMSYCAYTMRTP | -0.247 ± 0.34
WLWINPMEVDYGVLTRLEKT | -0.213 ± 0.26
WMDTLVSIGRGGMLRVSCSG | 0.519 ± 0.49
WMKVLVPFRMEAASGSLFCS | -1.22 ± 1.3
WMWGGGRWRRVPRRCMVVGR | -0.054 ± 0.4
WNEVILILDNCAIVCYDILT | 4.05 ± 0.054

Substance | amyloid nucleation score
WNEWRGHVTILGDLYSYRHT | 3.6 ± 0.16
WNIRGVMGLSNVR | -0.058 ± 0.29
WNSLSWRVRMRGDNQYRRGR | 0.675 ± 1
WPRNRHGVVILLVVIANSCS | -0.379 ± 0.76
WPRVGETSRVNLTTGIMS | -0.297 ± 0.29
WPVYEDKACCHVDAHKGEAT | 0.838 ± 0.48
WQQGLVCQI | 0.241 ± 0.37
WQRNDQWMVVQVITVSV | 0.176 ± 0.47
WRDTDCGLIN | inactive
WRESSGTNLSAFVPKDM | -0.675 ± 0.81
WRGRVTKFRVLH | 0.105 ± 0.53
WRLMRECTFSVS | 0.137 ± 0.29
WRLTSS | -0.809 ± 0.45
WRSSSFSGIWYVSVGYNASL | -0.455 ± 0.4
WSFLDWWIRSRSLITVCVVS | -0.348 ± 0.46
WSGWAKPSHYVALGRVGSWE | -0.075 ± 0.63
WSLQKRG | inactive
WSLVDDPLVFERLFWPCYQ | 0.142 ± 0.31
WSSYTFR | 0.839 ± 0.63
WSTGDVLVLVKLYYAFMCVI | -0.819 ± 0.27
WSTLVKRSDFCVHWVLFGSG | -0.179 ± 0.46
WSTQSLCFGPT | 0.012 ± 0.63
WSVISIEASLCRQVPLYANT | 0.26 ± 0.65
WSYLQY | -0.364 ± 0.79
WTAWADNSACSLCGQN | 0.859 ± 0.73

Substance | amyloid nucleation score
WTISSKGFFCWINCGLLQKR | 5.704 ± 0.05
WTLCMPKCGWRQSFSLRSRR | -0.294 ± 0.47
WTYWGSCGGLWSKIFIYFLL | 3.66 ± 0.078
WVAINPCV | 0.464 ± 0.88
WVARVMCRKNSYSMLIMWIC | -0.102 ± 0.22
WVCRSISPLVRTSLPRYWRN | inactive
WVCSNNMHMSIANVGLDCNL | 0.178 ± 0.33
WVKCLPGGLQAFWYS | -0.369 ± 1
WVLVIVLLRRWHHRDGAGQS | 0.57 ± 0.47
WVLVSVH | 0.211 ± 0.24
WVQNHKRQAPRDVLLSSYPD | inactive
WVSNCIFDAGLWRSYYRMGI | 0.74 ± 0.34
WVTQVDWSGRR | -0.348 ± 0.77
WVWSLWYSRDGVKVFFDRQS | -0.39 ± 0.34
WWGRGVLVWYGCRAKVWTS | 0.012 ± 1.6
WWSRTLSLLE | -0.035 ± 0.32
WWVYRARFNCCHLYKVYLHC | 0.221 ± 0.88
WWYQCHCSYYHAIGITSVQE | 1.39 ± 0.63
WYCPATH | 0.836 ± 0.97
